From patent US20230212266A1 (FRED HUTCHINSON CANCER CENTER, published 2023)
Read-outs that look alike come from different tables or passages of the source.

Experiments:
Experiment in all cases: BLI, mAb on anti-human Fc probe, antigen in solution
[1] = molecular target: T1, SARS-CoV-2 receptor binding domain (RBD) (SARS-CoV-2, UniProt P0DTC2 319-591)
[2] = molecular target: T1, SARS-CoV-2 receptor binding domain (RBD); remark: listed apart in the source
[3] = molecular target: T1, SARS-CoV-2 receptor binding domain (RBD); remark: listed apart in the source
[4] = molecular target: T1, SARS-CoV-2 receptor binding domain (RBD); remark: listed apart in the source
[5] = molecular target: T1, SARS-CoV-2 receptor binding domain (RBD); remark: listed apart in the source
[6] = molecular target: T1, SARS-CoV-2 receptor binding domain (RBD); remark: listed apart in the source
[7] = molecular target: T1, SARS-CoV-2 receptor binding domain (RBD); remark: listed apart in the source
[8] = molecular target: T1, SARS-CoV-2 receptor binding domain (RBD); remark: listed apart in the source
[9] = molecular target: T1, SARS-CoV-2 receptor binding domain (RBD); remark: listed apart in the source
[10] = molecular target: T1, SARS-CoV-2 receptor binding domain (RBD); remark: listed apart in the source
[11] = molecular target: T1, SARS-CoV-2 receptor binding domain (RBD); remark: listed apart in the source
[12] = molecular target: T1, SARS-CoV-2 receptor binding domain (RBD); remark: listed apart in the source
[13] = molecular target: T1, SARS-CoV-2 receptor binding domain (RBD); remark: listed apart in the source
[14] = molecular target: T1, SARS-CoV-2 receptor binding domain (RBD); remark: listed apart in the source
[15] = molecular target: T1, SARS-CoV-2 receptor binding domain (RBD); remark: listed apart in the source
[16] = molecular target: T1, SARS-CoV-2 receptor binding domain (RBD); remark: listed apart in the source
[17] = molecular target: T1, SARS-CoV-2 receptor binding domain (RBD); remark: listed apart in the source

B1: CV2-11 (antibody, V domains shown)
VH: EVQLVESGGGLVKPGGSLRLSCAASGFTFSSYSMNWVRQAPGKGLEWVSSISSSRSYIYYADSVKGRFTISRDNAKNSLYLQMNSLRAEDTAVYYCASNPAADPNTYYYYGMDVWGQGTTVTVSS
VL: QPVLTQPPSASASLGASVTLTCTLSSGYSNYKVDWYQQRPGKGPRFVMRVGTGGIVGSKGDGIPDRFSVLGSGLNRYLTIKNIQEEDESDYHCGADHGSGSNFVGVFGGGTKLTVL
notes: expressed as IgG
[1]
  binding result: no binding

B2: CV2-12 (antibody, V domains shown)
VH: QVQLVESGGGVVQPGRSLRLSCAASGFTFSSYGIHWVRQAPGKGLEWVAVISYDGINKYYADSVKGRFTISRDNSKNTLYLHMNSLRAEDTAVYYCARPNSGSYHSYFDYWGQGTLVTVSS
VL: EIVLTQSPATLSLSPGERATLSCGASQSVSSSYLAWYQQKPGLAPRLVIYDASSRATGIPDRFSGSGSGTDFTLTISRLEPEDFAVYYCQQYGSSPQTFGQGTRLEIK
notes: expressed as IgG
[2]
  binding result: no binding

B3: CV2-19 (antibody, V domains shown)
VH: QVQLVESGGGVVQPGRSLRLSCAASGFTFSSYAMHWVRQAPGKGLEWVAIISYDGINKYYADSVKGRFTISRDNSKNTLYLQMNSLRVEDTAVYYCARPGGGSYYGPFDYWGQGTLVTVSS
VL: QSALTQPASVSGSPGQSITISCTGTSSDVGSYNYVSWYQQHPGKAPKLMIYEVSNRPSGVSNRFSGSKSGNTASLTLSGLQAEDEADYYCSSYTSSSTLYVFGTGTKVTVL
notes: expressed as IgG
[3]
  binding result: no binding

B4: CV2-22 (antibody, V domains shown)
VH: QVQLVESGGGVVQPGRSLRLSCAASGFTFSSYGMHWVRQAPGKGLEWVAVISYDGSNKYYADSVKGRFTISRDNSKNTLYLQMNSLRAEDTALYYCASEIVSFIGSSEDYWGQGTLVTVSS
VL: SYELTQPPSVSVSPGQTARITCSGDALPKKYAYWYQQKSGQAPVLVIYEDSKRPSGIPERFSGSSSGTMATLTISGAQVEDEADYCCYSTDSSDNHRRVFGTGTKVTVL
notes: expressed as IgG
[4]
  binding result: no binding

B5: CV2-9 (antibody, V domains shown)
VH: EVQLVESGGGLIQPGGSLRLSCAASGFTVSSNYMTWVRQAPGKGLEWVSIIYSGGSTYYADSVKGRFTISRDNSKNTLYLQMNSLRAEDTAVYYCAAGYYDSINWGQGTLVTVPS
VL: DIQMTQSPSTLSASVGDRVTITCRASQSISTWLAWYQQKPGKAPKLLIYKASNLESGVPSRFSGSGSGTEFTLTISSLQPDDFATYYCQQYYTYSWTFGQGTKLEIKR
notes: expressed as IgG
[5]
  binding result: no binding

B6: CV2-23 (antibody, V domains shown)
VH: QVQLVESGGGVVQPGRSLRLSCAASGFTFNSFAMHWVRQAPGKGLEWVAVISYDGNNKYYADSVKGRFTISRDNSKNTLYLQMNSLRAEDTAVYYCARDRSGGYSCFDYWGQGTLVTVSS
VL: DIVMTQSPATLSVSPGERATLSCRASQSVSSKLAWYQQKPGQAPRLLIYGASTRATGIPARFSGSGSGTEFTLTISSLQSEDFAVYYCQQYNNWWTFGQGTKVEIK
notes: expressed as IgG
[6]
  binding result: no binding

B7: CV2-21 (antibody, V domains shown)
VH: QVQLVQSGAEVKKPGASVKVSCKAFGYTFTKNGINWVRQAPGQGLEWMGWISPNNGYTNFAQKFQGRATMTSDTSTSTAYMELRSLRSDDTAVYYCARVRVDYDSSGYDAYYYHLDVWGQGTTVTVSS
VL: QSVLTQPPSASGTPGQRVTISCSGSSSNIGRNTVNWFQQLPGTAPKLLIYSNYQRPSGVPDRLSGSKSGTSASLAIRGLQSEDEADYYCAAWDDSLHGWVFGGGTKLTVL
notes: expressed as IgG
[7]
  binding result: no binding

B8: CV2-10 (antibody, V domains shown)
VH: QVQLQESGPGLVKPSGTLSLTCAVSGGSISSSTWWSWVRQPPGKGLEWIGEIYHSGSTNYNPSLKSRVTISVDKSKNQFSLKLSSVTAADTAVYYCARSASNYFGYYYYGMDVWGQGTTVTVSS
VL: EIVLTQSPATLSLSPGERATLSCRASQSVSSQLAWYQQKPGQAPRLLISDASNRATGIPARFSGSGSGTDFTLTISSLEPEDFAVYYCQQRSNWPRTFGQGTKVEIK
notes: expressed as IgG
[8]
  binding result: no binding

B9: CV2-14 (antibody, V domains shown)
VH: QVQLVESGGGVVQPGRSLRLSCAASGFTFSSFALHWVRQAPGKGLEWVAVVSYDGSNKYYADSVKGRFTISRDNSKNTLYLQMNSLRAEDTAAYYCARSMGGNYADYFDYWGQGTLVTVSS
VL: EIVLTQSPATLSLSPGERATLSCRASQSVTNYLAWYQQKPGQAPRLLIYDASNRATGIPARFSGSGSGTDFTLTISSLEPEDFAVYYCQQRSNWPNTFGQGTRLEIK
notes: expressed as IgG
[9]
  binding result: no binding

B10: CV8 (antibody, V domains shown)
VH: QVQLVQSGAEVKKPGASVKVSCKASGYTFTSYGISWVRQAPGQGLEWMGWISAYNGNTNYAQKLQGRVTMTTDTSTSTAYMELRSLRSDDTAVYYCARLVPTWASYYDFWSGYPGGYGMDVWGQGTTVTVSS
VL: not shown
notes: expressed as IgG
[10]
  binding result: no binding

B11: CV2-8 (antibody, V domains shown)
VH: QVQLVESGGGVVQPGRSLRLSCGASGFIFSSYAMHWVRQAPGKGLEWVAVISYDGNNKYYADSVKGRFTISRDNSKNTLYLQMNSLRAEDTAVYYCARPYSGTYFSAFDIWGQGTMVTVSS
VL: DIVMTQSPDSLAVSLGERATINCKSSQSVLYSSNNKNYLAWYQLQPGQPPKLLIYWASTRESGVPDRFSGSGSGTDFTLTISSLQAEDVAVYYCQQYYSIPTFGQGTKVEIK
notes: expressed as IgG
[11]
  binding result: no binding

B12: CV2-6 (antibody, V domains shown)
VH: QVQLVESGGGVVQPGRSLRLSCAASGFTFSIYAIHWVRQAPGKGLEWVAVISYDGINKYYADAVKGRFTISRDNSKNTLFLQMNSLRTEDTAVYYCARAMGGNYFHAFDIWGQGTMVTVSS
VL: EIVLTQSPGTLSLSPGERATLSCRASQSVSSSYLAWYQRKPGQAPRLLIYGASNRATGIPDRFSGSGSGTDFTLTISRLEPEDFAVFYCQQYGSSPWTFGQGTKVEIK
notes: expressed as IgG
[12]
  binding result: no binding

B13: CV2-13 (antibody, V domains shown)
VH: EVQLVESGGGLVQPGGSLRLSCAASGFTFSSYEMNWVRQAPGKGLEWVSYISSSGSTIYYADSVKGRFTISRDNAKNSLYLEMNSLRAEDTAVYYCASTSDSGSYYIHWYFDLWGRGTLVTVSS
VL: QSALTQPASVSGSPGQSITISCTGTSSDVGSYNLVSWYQQHPGKAPKLMIYDVSKRPSGVSNRFSGSKSGNTASLTISGLQAEDEADYYCCSHAGSSTSYIFGTGTKVTVL
notes: expressed as IgG
[13]
  binding result: no binding

B14: CV2-17 (antibody, V domains shown)
VH: EVQLVESGGGLVQPGGSLRLSCSASGFTFSSYAMHWVRQAPGKGLEYVSTISTNGGSTYYADSVKGRFTISRDNSKNTLYLQMSSLRAEDTAVYYCVLGYCSSTSCQHFDYWGQGTLVTVSS
VL: QSALTQPASVSGSPGQSITISCTGTSSDVGAYNYVSWYQQHPGKAPKLMIYEVSNRPSGVSNRFSGSKSGNTASLTISGLQAEDEADYYCSSYTSSSTPYVFGTGTKVTVL
notes: expressed as IgG
[14]
  binding result: no binding

B15: CV2-18 (antibody, V domains shown)
VH: QVQLVQSGAEVKKPGSSVKVSCKASGGTFSSYAISWVRQAPGQGLEWMGGIIPIFGTANYAQKFQGRVTITADESTSTAYMELSSLRSEDTAVYYCARVGAYDSSGYYQDLWGRGTLVTVSS
VL: EIVLTQSPATLSLSPGERATLSCRASQSVSSYLAWYQQKPGQAPRLLIYDASNRATGIPARFSGSGSGTDFTLTISSLEPEDFAVYYCQQRSNWPPVITFGQGTRLEIK
notes: expressed as IgG
[15]
  binding result: no binding

B16: CV2-16 (antibody, V domains shown)
VH: QVQLVQSGAEVKKPGSSVKVSCKASGGTFSSFAFIWVRQAPGQGLEWMGGIIPIFGTAKYTQKFQGRVTITADESTSTAYMELSSLRSEDTAVYYCARVSYYDSSGFYTDYWGQGTLVTVSS
VL: DIVMTQSPATLSLSPGERATLSCRASQSVSSFLAWYQQKPGQAPRLLIYDASNRATGIPARFSGSGSGTDFTLTISSLEPEDFAVYYCQQRSNWPPEYTFGQGTKLEIK
notes: expressed as IgG
[16]
  binding result: no binding

B17: CV2-15 (antibody, V domains shown)
VH: QVQLVQSGAEVKKPGSSVKVSCKTSGGIFSSYAISWVRQAPGQGLEWMGGIIPIFGTANYAQKFQGRVTITADESTSTAYMELSSLRSEDTAVYYCASYSGFDDYGHYRNYWGQGTLVTVSS
VL: DIVMTQTPATLSLSPGERATLSCRASQSVSRYLAWYQQKPGQAPRLLIYDASNRATGIPARFSGSGSGTDFTLTISSLEPEDFAVYYCQQRYNWPPELTFGGGTKVEIK
notes: expressed as IgG
[17]
  binding result: no binding
